Assay results published in patent publication US20200317744A1 (published 2020).

T1: human IL-4Rα (human, UniProt P24394 26-232, limits assumed, biotinylated)
T1 construct: also called IL-4Rα receptor
T1 sequence (looked up): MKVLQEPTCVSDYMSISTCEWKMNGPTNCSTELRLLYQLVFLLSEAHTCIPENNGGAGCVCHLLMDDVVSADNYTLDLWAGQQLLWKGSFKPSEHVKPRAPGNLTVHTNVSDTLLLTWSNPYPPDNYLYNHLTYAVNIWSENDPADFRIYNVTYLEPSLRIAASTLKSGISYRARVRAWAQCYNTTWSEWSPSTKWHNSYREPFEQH

T2: IL-4 receptor αγc heterodimer (IL-4Rαγc) (human, UniProt P24394 26-232; P31785 23-254, limits assumed, biotinylated at the C-terminal biotin acceptor peptide (BirA))
T2 construct: also called γc when IL-4Rα is present in solution
T2 sequence 1: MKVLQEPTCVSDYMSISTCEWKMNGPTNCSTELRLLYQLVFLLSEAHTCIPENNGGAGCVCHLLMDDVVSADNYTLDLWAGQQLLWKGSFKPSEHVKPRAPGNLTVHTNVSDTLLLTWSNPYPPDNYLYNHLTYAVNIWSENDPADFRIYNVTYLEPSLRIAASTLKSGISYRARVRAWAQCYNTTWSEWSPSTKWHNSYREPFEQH
T2 sequence 2: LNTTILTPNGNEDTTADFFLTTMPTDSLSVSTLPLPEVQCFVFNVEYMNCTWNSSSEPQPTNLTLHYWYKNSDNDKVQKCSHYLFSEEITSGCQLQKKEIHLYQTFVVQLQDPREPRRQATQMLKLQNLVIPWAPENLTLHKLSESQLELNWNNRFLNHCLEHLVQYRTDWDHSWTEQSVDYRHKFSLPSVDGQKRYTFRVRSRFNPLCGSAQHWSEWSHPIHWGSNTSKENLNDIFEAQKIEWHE


What was measured:
[1] = target: murine IL-2Rβ (mIL-2Rβ) (mouse) (UniProt P16297); assay: SPR; mIL-2Rβ immobilised
[2] = target: murine IL-2 receptor βγc heterodimer (mIL-2Rβγc) (mouse) (UniProt P16297); assay: SPR; mIL-2Rγ immobilised, saturating mIL-2Rβ in solution
[3] = target: human IL-2 receptor βγc heterodimer (hIL-2Rβγc) (human) (UniProt P14784); assay: SPR; hIL-2Rγ immobilised, saturating hIL-2Rβ in solution
Chain of human IL-2 receptor βγc heterodimer (hIL-2Rβγc) (human) (P14784 27-240, one chain of several): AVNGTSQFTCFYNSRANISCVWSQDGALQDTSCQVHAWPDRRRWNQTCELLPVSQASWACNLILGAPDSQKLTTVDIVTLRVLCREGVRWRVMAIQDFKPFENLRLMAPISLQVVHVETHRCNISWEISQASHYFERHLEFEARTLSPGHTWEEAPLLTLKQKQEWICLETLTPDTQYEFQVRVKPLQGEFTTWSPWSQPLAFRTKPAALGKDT

[4] = target: human IL-2Rβ (hIL-2Rβ) (human) (UniProt P14784); assay: SPR; hIL-2Rβ immobilised
Chain of human IL-2Rβ (hIL-2Rβ) (human) (P14784 other isoform, or with tags, fused parts or gaps): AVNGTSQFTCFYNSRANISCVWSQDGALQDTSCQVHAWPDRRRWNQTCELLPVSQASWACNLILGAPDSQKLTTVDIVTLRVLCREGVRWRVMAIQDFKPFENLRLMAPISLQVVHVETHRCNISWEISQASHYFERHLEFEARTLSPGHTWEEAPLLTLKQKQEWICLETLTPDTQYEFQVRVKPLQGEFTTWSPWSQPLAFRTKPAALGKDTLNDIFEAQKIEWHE

[5] = target: human IL-2Rβγc on YT-1 human natural killer cells (human) (UniProt P14784); assay: cell-based or functional assay
Chain of human IL-2Rβγc on YT-1 human natural killer cells (human) (P14784 27-551): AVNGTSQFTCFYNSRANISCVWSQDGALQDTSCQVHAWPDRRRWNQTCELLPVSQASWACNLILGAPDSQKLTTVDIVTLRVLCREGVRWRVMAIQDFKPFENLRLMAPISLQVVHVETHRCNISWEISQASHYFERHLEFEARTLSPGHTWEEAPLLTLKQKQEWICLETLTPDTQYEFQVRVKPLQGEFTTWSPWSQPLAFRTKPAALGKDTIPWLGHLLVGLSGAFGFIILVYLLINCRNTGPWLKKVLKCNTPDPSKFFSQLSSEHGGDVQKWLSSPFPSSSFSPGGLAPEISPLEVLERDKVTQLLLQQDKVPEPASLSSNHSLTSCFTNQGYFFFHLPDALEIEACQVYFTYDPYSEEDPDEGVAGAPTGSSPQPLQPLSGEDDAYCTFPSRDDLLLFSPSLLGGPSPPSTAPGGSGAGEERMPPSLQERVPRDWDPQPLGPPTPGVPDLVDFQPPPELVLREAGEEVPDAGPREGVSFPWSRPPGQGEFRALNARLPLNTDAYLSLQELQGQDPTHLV

[6] = target: IL-2Rβγc (species not stated); assay: biolayer interferometry
Chain of IL-2Rβγc (species not stated) (P14784 whole entry, chain 1 of 2): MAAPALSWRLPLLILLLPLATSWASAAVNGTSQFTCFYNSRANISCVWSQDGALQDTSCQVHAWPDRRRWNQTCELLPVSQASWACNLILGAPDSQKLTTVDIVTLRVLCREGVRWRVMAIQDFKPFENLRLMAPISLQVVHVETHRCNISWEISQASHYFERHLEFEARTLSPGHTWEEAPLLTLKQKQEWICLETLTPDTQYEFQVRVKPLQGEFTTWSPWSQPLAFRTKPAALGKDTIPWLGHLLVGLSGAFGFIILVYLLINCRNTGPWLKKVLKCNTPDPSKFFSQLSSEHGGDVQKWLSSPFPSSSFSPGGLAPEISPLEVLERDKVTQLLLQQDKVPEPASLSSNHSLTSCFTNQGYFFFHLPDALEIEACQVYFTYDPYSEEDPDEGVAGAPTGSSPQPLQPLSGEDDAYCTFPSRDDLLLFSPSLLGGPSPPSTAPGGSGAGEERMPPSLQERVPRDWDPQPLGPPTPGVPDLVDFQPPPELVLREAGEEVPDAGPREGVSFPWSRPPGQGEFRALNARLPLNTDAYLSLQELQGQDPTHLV
Chain of IL-2Rβγc (species not stated) (P31785 whole entry, chain 2 of 2, further chain): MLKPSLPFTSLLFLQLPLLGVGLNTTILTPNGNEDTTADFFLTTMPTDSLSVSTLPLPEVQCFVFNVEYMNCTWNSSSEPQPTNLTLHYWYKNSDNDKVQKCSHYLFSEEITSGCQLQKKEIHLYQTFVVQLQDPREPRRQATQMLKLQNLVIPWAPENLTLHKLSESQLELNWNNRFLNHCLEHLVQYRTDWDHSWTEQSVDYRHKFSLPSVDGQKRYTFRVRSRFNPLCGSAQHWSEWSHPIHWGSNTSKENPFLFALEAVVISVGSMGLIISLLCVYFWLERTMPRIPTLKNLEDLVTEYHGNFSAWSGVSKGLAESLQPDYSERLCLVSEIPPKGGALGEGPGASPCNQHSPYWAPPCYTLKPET

[7] = target: murine IL-2 receptor βγc heterodimer (mIL-2Rβγc) (mouse) (UniProt P16297); assay: biolayer interferometry; biotin-mIL2Gamma on streptavidin sensor, MSA-Neo2 titrated 729 to 1 nM with saturating mIL2Beta
human IL-4Rα = target: T1, human IL-4Rα; assay: biolayer interferometry
[8] = target: T2, IL-4 receptor αγc heterodimer (IL-4Rαγc); assay: biolayer interferometry; γc on sensor, IL-4Rα in solution
Experimental: Less than 100 response units (RU) of each ligand was immobilized to minimize mass transfer effects. […] Surface regeneration for all interactions was conducted using 15 s exposure to 1 M MgCl2 in 10 mM sodium acetate pH 5.5. SPR experiments were carried out in HBS-P+ buffer (GE Healthcare) supplemented with 0.2% bovine serum albumin (BSA) at 25° C. and all binding studies were performed at a flow rate of […] to prevent analyte rebinding. Data was visualized and processed using the Biacore T100 evaluation software version 2.0 (GE Healthcare). Equilibrium titration curve fitting and equilibrium binding dissociation (KD) value determination was implemented using GraphPad Prism assuming all binding interactions to be first order. Biolayer interferometry: binding data were collected in a Octet RED96 (ForteBio, Menlo Park, Calif.) and processed using the instrument's integrated software using a 1:1 binding model. […] Analyte proteins were diluted from concentrated stocks into binding buffer.

Row | Kd [1] | Kd [2] | Molecule | further results
1 | 8110 nM | 492 nM | human IL-2 (hIL-2) (from UniProt P60568 21-153) (ligand) | 
2 | 214 nM | 312 nM | Super-2/Superkine (PDB:3QAZ) (ligand) | Kd [3]: 301 nM; Kd [4]: 2 nM; EC50 (CD25-) pSTAT5, human NK (YT, CD25-) cells [5]: 70 pM
3 | 16.1 nM | 38.4 nM | Neoleukin-2/15 (i.e. G2_neo2_40_1F_seq36_S11) (designed binder) | 
4 |  | 69.2 nM | G2_neo2_40_1F_seq40 (designed binder) PEKKRQLLAEHALLDALMILNIIRTNSDNTESKLEDYISNLKVILEEIARLMESLGLSDEAEKAKEAMRLADKAGSTASEEEKKEAMNRVITWAQSWIFN | 
5 |  | 80 nM | G2_neo2_40_1F_seq04 (designed binder) TTKKIQLLVEHALLDALMILNLSSESNEKLNRIITTLQSWIFRGEIDPDRARELAKLLEEIREEMRKRGIDTEDYVSNMIVIIRELA | 
6 |  | 27.8 nM | G2_neo2_40_1F_seq26 (designed binder) TKKKYQLLIEHALLDALMILNLWSESNEKLNRIITTMQSWIFTGTYDPDKAEELEKLAKEIEDEARERGIDTEDYMSNLRVILKELS | 
7 | 2430 nM | 568 nM | G2_neo2_40_1F_seq36 (designed binder) PKKKIQLLAEHALLDALMILNIVKTNSQNAEEKLEDYASNVEVILEEIARLMESGDQKDEAEKAKRMKEWMKRIKTTASEDEQEEMANRIITLLQSWIFS | 
8 |  | 38.2 nM | G2_neo2_40_1F_seq29 (designed binder) EDYYSNLKVILEELAREMERNGLSDKAEEWRQWKKIVERIRQIRSNNSDLNEAKELLNRLITYIQSQIFEISERIRETDQEKKEESWKKWQLLLEHALLDVLMLLND | 
9 | 486 nM | 7.9 nM | G1_neo2_40_1F (designed binder) STKKTQLLAEHALLDALMMLNLLPEPNEKLNRIITTMQSWIFTGKIDGDGAQELAKEVEELEQEHEKRGIDVEDYASNLKVILLELA | 
10 | 68300 nM | 964 nM | G1_neo2_40_1F_H2 (designed binder) STKKTQLLLEHALLDALHMRRNLPEPNEKLSRIITTMQSWIFTGKIDGDGAQELAKEVEELEQEHEKRGRDVEDDASNLKVILLELA | 
11 |  | 3830 nM | G1_neo2_40_1F_H3 (designed binder) STKKTQLLIEHALLDALNMRKKLPEPNEKLSRIITDMQSWIFTGKIDGDGAQQLAKEVEELEQEHEKRGGDVEDYASNLKVILLELA | 
12 | 45300 nM | 5120 nM | G1_neo2_40_1F_H5 (designed binder) STKKTQLLIEHALLDALHMSRKLPEPNEKLSRIITTMQSWIFTGKIDGDGAQHLAKEVEELEQEHEKRGGEVEDEASNLKVILLELA | 
13 | 6800 nM | 2650 nM | G1_neo2_40_1F_H1 (designed binder) STKKTQLLIEHALLDALDMSRNLPEPNEKLSRIITTMQSWIFTGKIDGDGAQQLAKEVEELEQEHEKRGEDVEDEASNLKVILLELA | 
14 | 10100 nM | 392 nM | G1_neo2_40_1F_H4 (designed binder) STKKTQLLLEHALLDALHMSRELPEPNEKLNRIITDMQSWIFTGKIDGDGAQDLAKEVEELEQEHEKRGGDVEDYASNLKVILLELA | 
15 | 214 nM | 4.3 nM | G1_neo2_40_1F_M1 (designed binder) STEKTQLAAEHALRDALMLKHLLNEPNEKLARIITTMQSWQFTGKIDGDGAQELAKEVEELQQEHEVRGIDVEDYASNLKVILLHLA | 
16 | 2600 nM | 886 nM | G1_neo2_40_1F_M2 (designed binder) STKNTQLAAEDALLDALMLRNLLNEPNEKLARIITTMQSWQFTEKIDGDGAQELAKEVEELQQEHEERGIDVEDYASNLKVILLQLA | 
17 | 402 nM | 64.8 nM | G1_neo2_40_1F_M3 (designed binder) STEKTQHAAEDALRDALMLRNLLNEPNEKLARIITTMQSWQFTEKIDGDGAQELAKEVEELQQEHEVRGIDVEDYASNLKVILLQLA | 
18 |  |  | Neoleukin-2/15 terminal disulfide-stapled variant (CNSN and NFQC added at the termini) (designed binder, disulfide bond between the added N-terminal and C-terminal cysteines) CNSNKKKIQLHAEHALYDALMILNIVKTNSPPAEEKLEDYAFNFELILEEIARLFESGDQKDEAEKAKRMKEWMKRIKTTASEDEQEEMANAIITILQSWIFNFQC | Kd [6]: 1.8 nM
19 |  |  | Neoleukin-2/15 internal disulfide-stapled variant (disulfide between residues 38 and 75) (designed binder, disulfide bond between residues 38 and 75) PKKKIQLHAEHALYDALMILNIVKTNSPPAEEKLEDYCFNFELILEEIARLFESGDQKDEAEKAKRMKEWMKRICTTASEDEQEEMANAIITILQSWIFS | Kd [6]: 1.3 nM
20 |  | 71.5 nM | G2_neo2_40_1F_seq16 (designed binder) TKKKIQLLVEHALLDALMILNLSSKSNEKLNRIITTMQSWIFNGTIDPDRARELAKLVEEIRDEMEKNGIDTEDYVSNLKVILEELA | 
21 |  | 13.6 nM | G2_neo2_40_1F_seq27 (designed binder) TKKKAQLLAEHALLDALMLLNLSSESNERLNRIITWLQSIIFTGTYDPDMVKEAVKLADEIEDEMRKRGIDTEDYVSNLRVILQELA | 
22 |  |  | Mouse Serum Albumin (MSA) fusion to Neoleukin-2/15 (protein) GSDGGSHHHHHHGSGSENLYFQGSGEAHKSEIAHRYNDLGEQHFKGLVLIAFSQYLQKCSYDEHAKLVQEVTDFAKTCVADESAANCDKSLHTLFGDKLCAIPNLRENYGELADCCTKQEPERNECFLQHKDDNPSLPPFERPEAEAMCTSFKENPTTFMGHYLHEVARRHPYFYAPELLYYAEQYNEILTQCCAEADKESCLTPKLDGVKEKALVSSVRQRMKCSSMQKFGERAFKAWAVARLSQTFPNADFAEITKLATDLTKVNKECCHGDLLECADDRAELAKYMCENQATISSKLQTCCDKPLLKKAHCLSEVEHDTMPADLPAIAADFVEDQEVCKNYAEAKDVFLGTFLYEYSRRHPDYSVSLLLRLAKKYEATLEKCCAEANPPACYGTVLAEFQPLVEEPKNLVKTNCDLYEKLGEYGFQNAILVRYTQKAPQVSTPTLVEAARNLGRVGTKCCTLPEDQRLPCVEDYLSAILNRVCLLHEKTPVSEHVTKCCSGSLVERRPCFSALTVDETYVPKEFKAETFTFHSDICTLPEKEKQIKKQTALAELVKHKPKATAEQLKTVMDDFAQFLDTCCKAADKDTCFSTEGPNLVTRCKDALAGGGSGGSGGGSGGSGSGPKKKIQLHAEHALYDALMILNIVKTNSPPAEEKLEDYAFNFELILEEIARLFESGDQKDEAEKAKRMKEWMKRIKTTASEDEQEEMANAIITILQSWIFS | Kd [7]: 33.5 nM
23 |  |  | Neoleukin-4 (i.e. IL4_G2_neo2_40_1F_seq36_S11_MIF) (designed binder, also called Neo-4) PKKKIQIMAEEALKDALSILNIVKTNSPPAEEQLERFAKRFERNLWGIARLFESGDQKDEAEKAKRMIEWMKRIKTTASEDEQEEMANAIITILQSWFFS | binding result (human IL-4Rα): binds; binding result [8]: binds
24 | 1500 nM | 126 nM | mouse IL-2 (mIL-2) (ligand, UniProt P04351 21-169, looked up) APTSSSTSSSTAEAQQQQQQQQQQQQHLEQLLMDLQELLSRMENYRNLKLPRMLTFKFYLPKQATELKDLQCLEDELGPLRHVLDLTQSKSFQLEDAENFISNIRVTVVKLKGSDNTFECQFDDESATVVDFLRRWIAFCQSIISTSPQ | 
25 |  | 925 nM | G2_neo2_40_1F_seq30 (designed binder) PEKKRQLLLEHILLDALMLLNLLETNPQNTESKFEDYISNAEVIAEELAKLMESLGLSDEAEKFKKIKQWLREVWRIWSSTNWSTLEDKARELLNRIITTIQSQIFY | 
26 |  | 39.1 nM | G2_neo2_40_1F_seq12 (designed binder) TEKKLQLLVEHALLDALMILNLWSESNEKLNRIITTMQSWIFTGRIDPDKAEELAKLVEELREEARERGIDTEDYVSNLKVILKELS | 
